From patent US20250313602A1 (published 2025)

Legend:
[1] = target: T1, human IL-2Rα protein (10165-H08H, Sino Biological) (human, UniProt P01589 22-213); test: ELISA
T1 chain: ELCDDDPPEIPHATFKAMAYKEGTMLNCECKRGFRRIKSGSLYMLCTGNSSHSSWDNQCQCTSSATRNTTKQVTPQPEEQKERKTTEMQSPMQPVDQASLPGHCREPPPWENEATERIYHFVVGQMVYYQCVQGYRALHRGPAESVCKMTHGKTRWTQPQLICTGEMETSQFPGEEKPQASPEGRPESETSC

[2] = target: T2, human IL-2Rβ protein (10696-H05H, Sino Biological) (human, UniProt P14784 27-239); test: ELISA
T2 chain: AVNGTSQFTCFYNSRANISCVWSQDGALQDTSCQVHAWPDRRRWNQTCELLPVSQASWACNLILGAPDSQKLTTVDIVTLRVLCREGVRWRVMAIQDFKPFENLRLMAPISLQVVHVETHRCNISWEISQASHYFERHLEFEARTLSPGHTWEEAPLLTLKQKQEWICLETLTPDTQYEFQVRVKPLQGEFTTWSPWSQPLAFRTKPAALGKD

B1: IL-2-Fc fusion protein (Fc fusion)
chain: APTSSSTKKTQLQLEHLLLDLQMILNGINNYKNPKLTAMLTFKFYMPKKATELKHLQCLEEELKPLEEVLNLAQSKNFHFDPRDVVSNINVFVLELKGSETTFMCEYADETATIVEFLNRWITFCQSIISTLTGGGGSGGGGSGGGGSEPKSCDKTHTCPPCPAPEAAGGPSVFLFPPKPKDTLYITREPEVTCVVVDVSHEDPEVKFNWYVDGVEVHNAKTKPREEQYNSTYRVVSVLTVLHQDWLNGKEYKCKVSNKALPAPIEKTISKAKGQPREPQVYTLPPSREEMTKNQVSLTCLVKGFYPSDIAVEWESNGQPENNYKTTPPVLDSDGSFFLYSKLTVDKSRWQQGNVFSCSVMHEALHNHYTQKSLSLSPK
EC50 [1]: 3.06 nM
EC50 [2]: 94 nM
